How the values were obtained:
SlSS = molecular target: T1, SlSS (Solanum lycopersicum, UniProt A0A3Q7ETS2); experiment: radioactive TLC assay; format: biochemical; conditions: labelled compound (3H), 10 μM, 2 mM NADPH, 20 mM MgCl2, MOPS pH 6.8, 37 °C
T1 construct: gene SQS1; SlSS delta387-411: C-terminal transmembrane domain deleted, N-terminal 6xHis (pET28a), E. coli BL21(DE3), Ni-NTA; NM_001247787 assigned to SlSS by judgement

BSS (SS from race B) = molecular target: T2, BSS (SS from race B) (Botryococcus braunii, UniProt Q9SDW9); experiment: radioactive TLC assay; format: biochemical; conditions: labelled compound (3H), 10 μM, 2 mM NADPH, 20 mM MgCl2, MOPS pH 6.8, 37 °C
T2 construct: BSS delta399-461: C-terminal transmembrane domain deleted, N-terminal 6xHis (pET28a), E. coli BL21(DE3), Ni-NTA

LSS (SS from race L) = molecular target: T3, LSS (SS from race L) (Botryococcus braunii, UniProt A0A144YEA5); experiment: GC-MS product assay; radioactive TLC assay; format: biochemical; conditions: 10 μM substrate in radioactive assay; 2 mM NADPH, 20 mM MgCl2, MOPS pH 6.8, 37 °C; product squalene
T3 construct: LSS delta399-462: C-terminal transmembrane domain deleted, N-terminal 6xHis (pET28a), E. coli BL21(DE3), Ni-NTA

SSL-2 = molecular target: T4, SSL-2 (Botryococcus braunii, UniProt G0Y287); experiment: radioactive TLC assay; format: biochemical; conditions: labelled compound (3H), 10 μM; 2 mM NADPH, 20 mM MgCl2, MOPS pH 6.8, 37 °C; product lycopaoctaene (minor)
T4 construct: SSL-2 delta392-465: C-terminal transmembrane domain deleted, N-terminal 6xHis (pET28a), E. coli BL21(DE3), Ni-NTA

[1] = molecular target: T5, LOS (lycopaoctaene synthase) (Botryococcus braunii, UniProt A0A142ZC57); experiment: GC-MS of lycopaoctaene product from GGPP; format: biochemical; conditions: 20 nM squalestatin; GGPP substrate, NADPH, Mg2+, pH 6.8, 37 °C
T5 construct: LOS delta391-444: C-terminal transmembrane domain deleted from 444-residue protein, N-terminal 6xHis (pET28a), E. coli BL21(DE3), Ni-NTA

[2] = substrate: C/C(=C\COP(=O)(O)OP(=O)(O)O)CCC[C@H](C)CCC[C@H](C)CCCC(C)C; experiment: radioactive steady-state assay, n-hexane extraction, TLC, scintillation counting; format: biochemical, Botryococcus braunii; conditions: labelled compound (3H), 2 mM NADPH, 20 mM MgCl2, MOPS pH 6.8, 37 °C, 100 nM enzyme
Excerpt: (§1) radioactive steady-state assay, n-hexane extraction, TLC, scintillation counting on LOS (lycopaoctaene synthase)

[3] = substrate: CC(C)=CCC/C(C)=C/CC/C(C)=C/CC/C(C)=C/COP(=O)(O)OP(=O)(O)O; experiment: as above; format: biochemical, Botryococcus braunii; conditions: labelled compound (3H), 2 mM NADPH, 20 mM MgCl2, MOPS pH 6.8, 37 °C, 100 nM enzyme
Excerpt: as §1

[4] = substrate: CC(C)=CCC/C(C)=C/CC/C(C)=C/CO[P@@](=O)(O)OP(=O)(O)O; experiment: as above; format: biochemical, Botryococcus braunii; conditions: labelled compound (3H), 2 mM NADPH, 20 mM MgCl2, MOPS pH 6.8, 37 °C, 100 nM enzyme
Excerpt: as §1

T1 sequence (A0A3Q7ETS2 entry or part of it): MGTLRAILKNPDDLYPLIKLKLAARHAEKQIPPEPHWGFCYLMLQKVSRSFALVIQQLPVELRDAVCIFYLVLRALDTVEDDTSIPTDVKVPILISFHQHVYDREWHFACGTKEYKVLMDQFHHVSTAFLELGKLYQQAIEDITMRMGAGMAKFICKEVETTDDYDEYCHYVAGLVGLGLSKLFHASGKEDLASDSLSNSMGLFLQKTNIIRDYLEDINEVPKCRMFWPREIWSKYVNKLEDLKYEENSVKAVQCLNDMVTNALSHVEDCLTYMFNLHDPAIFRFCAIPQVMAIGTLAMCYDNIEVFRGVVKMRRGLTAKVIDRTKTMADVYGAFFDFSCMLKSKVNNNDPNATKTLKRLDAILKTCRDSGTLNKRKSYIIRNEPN
T2 sequence (Q9SDW9 1-398): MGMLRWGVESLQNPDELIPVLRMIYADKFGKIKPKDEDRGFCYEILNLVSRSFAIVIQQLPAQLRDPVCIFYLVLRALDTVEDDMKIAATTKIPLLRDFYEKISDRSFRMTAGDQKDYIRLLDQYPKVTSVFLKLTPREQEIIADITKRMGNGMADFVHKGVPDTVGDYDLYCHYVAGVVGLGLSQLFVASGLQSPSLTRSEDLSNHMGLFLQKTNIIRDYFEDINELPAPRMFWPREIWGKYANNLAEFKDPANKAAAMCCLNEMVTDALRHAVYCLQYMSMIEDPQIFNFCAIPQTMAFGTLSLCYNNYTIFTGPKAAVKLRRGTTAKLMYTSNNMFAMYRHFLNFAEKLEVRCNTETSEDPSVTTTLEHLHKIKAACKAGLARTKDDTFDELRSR
T4 sequence (G0Y287 1-391): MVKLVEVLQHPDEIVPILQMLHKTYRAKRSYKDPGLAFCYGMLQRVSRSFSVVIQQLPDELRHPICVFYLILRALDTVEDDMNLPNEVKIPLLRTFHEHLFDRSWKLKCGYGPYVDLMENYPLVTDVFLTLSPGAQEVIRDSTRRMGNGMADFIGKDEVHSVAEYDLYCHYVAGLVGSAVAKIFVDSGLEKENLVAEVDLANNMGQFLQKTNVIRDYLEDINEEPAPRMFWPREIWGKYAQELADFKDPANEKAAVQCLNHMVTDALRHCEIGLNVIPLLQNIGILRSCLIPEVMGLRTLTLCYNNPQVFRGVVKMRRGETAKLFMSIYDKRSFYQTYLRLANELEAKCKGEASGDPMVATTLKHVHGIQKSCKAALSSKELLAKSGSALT
T3 sequence (A0A144YEA5 1-398): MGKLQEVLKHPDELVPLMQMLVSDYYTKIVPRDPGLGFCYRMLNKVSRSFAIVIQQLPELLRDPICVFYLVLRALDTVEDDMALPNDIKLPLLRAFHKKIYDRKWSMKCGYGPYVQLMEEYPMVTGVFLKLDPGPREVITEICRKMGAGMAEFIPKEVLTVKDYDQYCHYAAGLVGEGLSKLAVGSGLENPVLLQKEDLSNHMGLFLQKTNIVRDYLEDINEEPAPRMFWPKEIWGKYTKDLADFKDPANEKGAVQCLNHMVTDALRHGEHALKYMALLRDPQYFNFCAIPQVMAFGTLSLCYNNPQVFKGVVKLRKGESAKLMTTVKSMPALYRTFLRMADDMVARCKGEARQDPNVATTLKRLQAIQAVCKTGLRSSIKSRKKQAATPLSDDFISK

CC(C)=CCC/C(C)=C/CC/C(C)=C/COP(=O)(O)OP(=O)(O)O [FPP]
radioactive TLC assay (SlSS; product squalene): the typical SS enzymes display SS activity as their main catalytic function | radioactive TLC assay (BSS (SS from race B); product squalene): the typical SS enzymes display SS activity as their main catalytic function | GC-MS product assay; radioactive TLC assay (LSS (SS from race L)): LSS was shown to yield squalene as its sole product in an in vitro assay

CC(C)=CCC/C(C)=C/CC/C(C)=C/CC/C(C)=C/COP(=O)(O)OP(=O)(O)O [GGPP]
radioactive TLC assay (SSL-2): allowing SSL-2 and SSL-1 plus SSL-2 to use GGPP to generate minor amounts of lycopaoctaene

C/C(=C\COP(=O)(O)OP(=O)(O)O)CCC[C@H](C)CCC[C@H](C)CCCC(C)C [PPP]
radioactive TLC assay (SlSS; product lycopadiene (minute)): BSS and SlSS also using PPP to produce minute amounts of lycopadiene | radioactive TLC assay (BSS (SS from race B); product lycopadiene (minute)): BSS and SlSS also using PPP to produce minute amounts of lycopadiene

C=C(CC[C@]12O[C@H](C(=O)O)[C@@](O)(C(=O)O)[C@](C(=O)O)(O1)[C@H](OC(=O)/C=C/[C@@H](C)C[C@@H](C)CC)[C@H]2O)[C@@H](OC(C)=O)[C@H](C)Cc1ccccc1 [squalestatin]
strong inhibition at 20 nM [1]: LOS is strongly inhibited by squalestatin (Fig. 5c), a potent SS inhibitor

B1: LOS (lycopaoctaene synthase) (Botryococcus braunii) (protein)
chain: MKYTDFLAHPDEIIPTIRMMYADYRLKNMEIKDPSVRFCYNMLNRVSRSFAMVIQQLPVELRDATCVFYLILRALDTVEDDMAIPKEVKIPMLRTFHEHLSDRSWKIKCGYGPYVDLMDNYPLVTDVYLRFDEGTKAVIKDITRRMGNGMADFIDLDEVLTIPQYDLYCHYVAGLCGIGMCKLFVDSGLEKEDLVAEEDLANQMGLFLQKNNIVRDYLEDINELPAPRMFWPKEIWGNYAKQLDEFKDPKNLDKAMLCLNHMVTDALRHCEVGLRSLSLLHNPNILRAVLIPQVMGVRTLTLVYNNPEVFRGVVKMRRGETAKIFVTTTSKLSFFRTYLQFANEMEQKCLTEAKNDPMVALTLKRVQGVQAACRAAIVKAEIAEGAKGPS
notes: LOS delta391-444: C-terminal transmembrane domain deleted from 444-residue protein, N-terminal 6xHis (pET28a), E. coli BL21(DE3), Ni-NTA
Km [2]: 110 ± 10 µM | kcat [2]: 0.00116 s⁻¹ | kcat/Km [2]: 10.3 M⁻¹ s⁻¹ | Km [3]: 70 ± 20 µM | kcat [3]: 0.0114 s⁻¹ | kcat/Km [3]: 165 M⁻¹ s⁻¹ | Km [4]: 130 ± 20 µM | kcat [4]: 0.0205 s⁻¹ | kcat/Km [4]: 162 M⁻¹ s⁻¹

Source: paper PMC4823828, “A squalene synthase-like enzyme initiates production of tetraterpenoid hydrocarbons in Botryococcus braunii Race L” (Nature Communications, 2016)
